Results published in the supplement of paper PMC10598134.
± gives the standard deviation.

Assay: collision cross section of modified peptide (TIMS, N2, iRT-aligned); higher = larger / more extended gas-phase ion
Method: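 1/K0 was aligned run-wise to spiked iRT peptides and converted to CCS in N2 (Mason-Schamp). Values are the mean of 1-3 technical replicates for the most abundant feature at each charge state.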

[1] = charge state: 2, modification: Formyl
[2] = charge state: 3, modification: Formyl
[3] = charge state: 2, modification: Glutarylation
[4] = charge state: 2, modification: Hydroxyproline
[5] = charge state: 3, modification: Propionyl
[6] = charge state: 2, modification: Malonyl
[7] = charge state: 2, modification: GlyGly (K)
[8] = charge state: 3, modification: GlyGly (K)
[9] = charge state: 2, modification: Dimethyl (K)
[10] = charge state: 3, modification: Dimethyl (K)
[11] = charge state: 2, modification: HexNAc (ST)

Which collision cross section (charge state: 2, modification: Crotonyl) does the source give for TLDEILQEKK [_TLDEILQEK(Crotonyl)K_] here?
Its collision cross section is 381.71 ± 0.8 Å².

What about the collision cross section (charge state: 3, modification: Crotonyl) of the same substance?
Its collision cross section is 444.38 ± 1.6 Å².

For LGNDFHTNKR [_LGNDFHTNK(Formyl)R_], which collision cross section [1] is on record?
Its collision cross section is 366.48 ± 1.5 Å².

What about the collision cross section [2] of the same substance?
The collision cross section was 438.07 ± 2.4 Å².

For “AGRGFSLEELR [_AGR(Citrullination (R))GFSLEELR_]”, which collision cross section (charge state: 2, modification: Citrullination (R)) is on record?
Its collision cross section is 372.54 ± 0.24 Å².

With “LGSPSGKTGTCR [_LGSPSGK(Gluratylation)TGTCR_]” as the substance, how does the collision cross section [3] read?
The collision cross section was 369.43 ± 0.9 Å².

For KVQFAPEK [_KVQFAP(Hydroxyproline)EK_], which collision cross section [4] is on record?
The collision cross section was 331.99 ± 1.4 Å².

For “SSFAYKDQNENR [_SSFAYK(Propionyl)DQNENR_]”, which collision cross section (charge state: 2, modification: Propionyl) is on record?
Its collision cross section is 401.75 ± 0.65 Å².

What about the collision cross section [5] of the same substance?
Its collision cross section is 462.04 Å².

With “DASTLQSQKAEGTGDAK [_DASTLQSQK(Malonyl)AEGTGDAK_]” as the substance, how does the collision cross section [6] read?
Its collision cross section is 438.73 ± 1.8 Å².

And the collision cross section (charge state: 3, modification: Malonyl)?
Its collision cross section is 490.61 ± 1.6 Å².

Which collision cross section [7] does the source give for “PSVGSQSNQAGQGKR [_PSVGSQSNQAGQGK(GlyGly (K))R_]” here?
Its collision cross section is 441.17 ± 1.6 Å².

And the collision cross section [8]?
Its collision cross section is 461.66 ± 1.1 Å².

For “YTAILNQIPSHSSSIR [_YTAILNQIP(Hydroxyproline)SHSSSIR_]”, which collision cross section [4] is on record?
The collision cross section was 473.92 ± 0.82 Å².

What about the collision cross section (charge state: 3, modification: Hydroxyproline) of the same substance?
Its collision cross section is 518.79 ± 6.1 Å².

With “VNIGQGSHPQKVK [_VNIGQGSHPQK(GlyGly (K))VK_]” as the substance, how does the collision cross section [7] read?
The collision cross section was 422.43 ± 1.1 Å².

What about the collision cross section [8] of the same substance?
Its collision cross section is 490.21 ± 0.72 Å².

Which collision cross section [1] does the source give for LTSLNVKYNNDK [_LTSLNVK(Formyl)YNNDK_] here?
The collision cross section was 404.27 ± 0.2 Å².

Which results are given for “SPSDSGYSYETIGKTTK [_SPSDSGYSYETIGK(Dimethyl (K))TTK_]”?
collision cross section [9]: 470.19 ± 1.3 Å²; collision cross section [10]: 515.36 ± 1.6 Å²

For “DSSPTTNSKLSALQR [_DSSPTTNSK(Formyl)LSALQR_]”, which collision cross section [1] is on record?
The collision cross section was 427.17 ± 1.8 Å².

And the collision cross section [2]?
Its collision cross section is 491.37 ± 1.3 Å².

Which results are given for “AGPNASIISLKSDK [_AGPNASIISLK(GlyGly (K))SDK_]”?
collision cross section [7]: 420.97 ± 0.85 Å²; collision cross section [8]: 488.88 ± 2 Å²

What does the source list for “AGQKLIDVNHYAK [_AGQK(Acetyl (K))LIDVNHYAK_]”?
collision cross section (charge state: 2, modification: Acetyl (K)): 429.91 ± 1.7 Å²; collision cross section (charge state: 3, modification: Acetyl (K)): 479.89 ± 2.5 Å²

With “LLEQKTQESQK [_LLEQK(Dimethyl (K))TQESQK_]” as the substance, how does the collision cross section [9] read?
The collision cross section was 409.09 ± 1.6 Å².

And the collision cross section [10]?
The collision cross section was 453.46 ± 1.6 Å².

Which collision cross section [3] does the source give for “SGNLTEDDKHNNAK [_SGNLTEDDK(Gluratylation)HNNAK_]” here?
Its collision cross section is 428.34 ± 1.5 Å².

And the collision cross section (charge state: 3, modification: Glutarylation)?
The collision cross section was 486.64 ± 2.8 Å².

For “PANEKATDDYHYEK [_PANEK(Propionyl)ATDDYHYEK_]”, which collision cross section [5] is on record?
The collision cross section was 507.47 ± 0.5 Å².

For “FSAYIKNSNPALNDNLEK [_FSAYIK(Formyl)NSNPALNDNLEK_]”, which collision cross section [1] is on record?
The collision cross section was 479.47 ± 1.3 Å².

And the collision cross section [2]?
Its collision cross section is 528.92 ± 9.9 Å².

For LGHYATQLQK [_LGHYAT(HexNAc (ST))QLQK_], which collision cross section [11] is on record?
The collision cross section was 388.93 ± 0.68 Å².

And the collision cross section (charge state: 3, modification: HexNAc (ST))?
Its collision cross section is 446.62 ± 0.17 Å².

For “LQLGTPPPLLAARLVPPR [_LQLGTPPPLLAAR(Citrullination (R))LVPPR_]”, which collision cross section (charge state: 3, modification: Citrullination (R)) is on record?
Its collision cross section is 576.16 ± 0.34 Å².

Which collision cross section [11] does the source give for DVFISAAER [_DVFIS(HexNAc (ST))AAER_] here?
Its collision cross section is 363.87 Å².

With KFGVLSDNFK [_K(Dimethyl (K))FGVLSDNFK_] as the substance, how does the collision cross section [9] read?
Its collision cross section is 367.27 ± 1.5 Å².

For “PSVGSQSNQAGQGKR [_PSVGSQSNQAGQGK(Butyryl)R_]”, which collision cross section (charge state: 2, modification: Butyryl) is on record?
Its collision cross section is 416.92 ± 1.1 Å².

What about the collision cross section (charge state: 3, modification: Butyryl) of the same substance?
The collision cross section was 475.14 ± 7.3 Å².

For LQNSYQPTNK [_LQNSY(Nitro (Y))QPTNK_], which collision cross section (charge state: 2, modification: Nitro (Y)) is on record?
The collision cross section was 362.69 ± 0.94 Å².

With “TGGTQTDLFTCGKCK [_TGGTQTDLFTCGK(Malonyl)CK_]” as the substance, how does the collision cross section [6] read?
Its collision cross section is 436.14 ± 0.67 Å².

Which collision cross section (charge state: 2, modification: Phospho (Y)) does the source give for “CQGGQETQEYR [_CQGGQETQEY(Phospho (Y))R_]” here?
Its collision cross section is 381.17 Å².

For “GGPGSTLSFVGKR [_GGPGSTLSFVGK(Malonyl)R_]”, which collision cross section [6] is on record?
The collision cross section was 380.38 ± 0.0061 Å².

Which collision cross section [4] does the source give for PGPRGQR [_P(Hydroxyproline)GPRGQR_] here?
The collision cross section was 294.67 Å².

For VGEFSGANKEK [_VGEFSGANK(Methyl (K))EK_], which collision cross section (charge state: 2, modification: Methyl (K)) is on record?
Its collision cross section is 374.84 ± 0.74 Å².

What about the collision cross section (charge state: 3, modification: Methyl (K)) of the same substance?
The collision cross section was 443.95 ± 6.6 Å².
